Paper PMC10194977

How the values were obtained:
[1] = biological target: Recombinant human PERK (EIF2AK3, active catalytic subunit of PERK protein) (human)
[2] = biological target: Recombinant human PERK (EIF2AK3, active catalytic subunit of PERK protein) (human); remark: listed apart in the source
[3] = biological target: Recombinant human PERK (EIF2AK3, active catalytic subunit of PERK protein) (human); remark: listed apart in the source

Substance: full-length recombinant human calcineurin-B (from UniProt P63098 1-170) (natural protein)
- % of PERK activity (relative to control; ADP-Glo, SMAD3 substrate) with 0.87 μM calcineurin-B, 1 h at 37 °C (no significant activation) [1]: 99.5%
- % of PERK activity (relative to control; ADP-Glo, SMAD3 substrate) with 0.87 μM calcineurin-B, 1 h at RT [1]: 106%
- EC50 of activation of PERK kinase activity (ATP consumption, ADP-Glo luminescence; 87 nM PERK, 0.26 μM SMAD3 as substrate, 50 μM ATP; RT, 2 h; three-fold serial dilution of calcineurin-B) [2]: 2720 nM
- relative PERK kinase activity (% of basal activity; ADP-Glo, SMAD3 substrate) with 0.87 μM calcineurin-B at reaction times of 15, 30, 60 and 120 min, RT; highest value at 120 min [3]: 128%
